Measured values from the supplement of paper PMC10567573.

B1: KLHL14 (parent)
chain: YVIGGRNETGYLSSVECYNLETNE
B2: GAGE1 (parent)
chain: QPPEMIGPMRPEQFSDEVEPATPE

Variants of: B1
Test: protein stability index of a GFP-peptide fusion (GPS, HEK-293T) (PSI 1-6); higher = more stable
Conditions: c terminus: a fixed tail appended
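Note: lentivirally expressed fusions sorted by FACS into six bins by GFP to DsRed ratio, PSI derived from sequencing read proportions per bin multiplied by bin number.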

Protein stability index of substitutions, site by site:
T22: C 1.79
E16: T 1.96
S14: N 2.12
C17: S 2.11
N19: P 2.1
Y1: R 4.39; E 4.45
V15: P 2.46
E21: K 2.26
N7: V 1.71; A 2.03
L12: E 3.23; N 2.78
G5: Q 2.1
N23: K 1.96; V 2.17
T9: E 2.67; R 2.76
G4: A 1.77; P 2.56
G10: K 2.13

Variants of: B2
Test: as above
Conditions: c terminus: a fixed tail appended

Protein stability index of substitutions, site by site:
T22: K 4.96; G 5.15; N 4.56; Y 4.84; L 4.79; W 4.35; I 4.66; Q 5.2; D 5.43; R 4.61; V 4.8; M 4.79; C 4.97
Q13: H 5.45; T 5.84; K 5.34; G 5.78; R 5.58; F 5.02; Y 5.5; C 5.59; N 5.33; E 4.65; V 5.62; L 5.64; A 5.12; P 5.91
P23: T 4.81; S 5.14; E 4.81; Y 4.4; M 5.05; F 4.69; W 4.41; C 4.57; Q 5.16; R 5.3; A 5.02; N 5.26
D16: R 5.33; V 5.54; N 5.38; L 5.32; I 5.39; T 5.46; K 5.51; Y 5.43; P 5.66; W 5.24; H 5.57
Q1: D 5.42; W 5.49; T 4.94; G 4.64; E 5.01; L 5.07; M 5.27; N 5.06; F 4.95
E12: M 5.15; K 5.15; Q 5.57; S 5.5; T 5.58; D 4.57; C 5.27; N 5.46; G 5.01; Y 5.51; P 5.73; L 5.8; V 5.83; W 4.88
S15: D 4.57; K 5.72; H 4.75; M 4.22; I 5.08; A 4.71; F 3.19; E 5.49; T 5.27; G 4.48; N 5.32; Y 4.59
I6: S 6; F 5.89; T 5.72; H 5.72; R 5.86; V 5.79; Y 5.65; M 5.59; D 5.79; E 5.81; P 5.52; C 5.91; K 5.78; N 5.72; G 5.45
V18: L 4.59; A 5.25; I 4.91; H 5.26; D 4.79; F 5.13; P 4.85; T 4.79; M 4.75; G 4.72; Y 4.22; Q 5.35
P2: K 4.99; F 5.11; W 4.48; D 4.87; E 4.88; S 4.65; T 5.09; Y 4.8; L 4.88; N 5.34; I 4.28; H 5.25; C 5.32; G 5.6
A21: W 4.7; I 4.87; H 4.66; N 4.29; L 4.9; D 5.12; G 4.98; P 4.6; E 5.21; V 5.34; M 5.17; S 4.79; C 4.59; R 5; Q 4.79
M9: Y 5.5; K 5.81; C 5.7; N 4.68; D 5.82; I 5.13; P 5.57; Q 5.49; W 5.9; H 5.9; R 5.86; V 5.97; S 5.72
F14: E 5.49; D 5.8; L 5.61; M 5.57; Q 5.56; W 5.65; N 5.87; C 5.29; P 5.84; R 5.72; T 5.81; K 4.13; Y 4.75
P8: G 5.45; C 5.48; K 5.46; V 5.67; L 5.52; Q 5.76; M 4.75; D 5.1; H 5.47; S 5.54; E 5.86; N 5.91; I 5.09; T 5.62
G7: H 5.48; E 5.69; L 5.44; P 5.56; A 5.38; F 5.83; V 5.68; N 5.91; T 5.46; R 5.68; D 5.22; Y 5.76; C 5.63
E17: W 4.85; T 5.08; Q 5.42; F 4.86; L 5.04; P 4.73; A 5.08; G 5.16; R 5.34; N 5.01; S 5.44; H 5.56; Y 4.05; C 4.91
M5: L 4.55; D 5.02; H 5.5; K 5.27; A 5.68; Q 5.25; E 5.15; I 4.57; S 3.55; T 5.19; N 5; R 5.81; G 5.45
E4: A 5.75; G 5.72; V 5.41; S 5.2; Y 5.75; P 5.56; M 5.65; D 5.65; R 5.74; H 5.6; C 5.58; N 5.48; W 5.61; Q 5.68
R10: Q 4.4; Y 5.24; L 4.37; G 4.82; N 5.28; C 5.51; T 4.38; P 5.78; D 3.42; V 4.98; A 5.17; M 5.12
P20: L 5.27; Y 5.13; N 4.75; H 5.46; A 4.44; T 4.91; R 5; D 5.25; E 4.92; Q 5.21; C 4.84
P11: E 5.69; W 5.39; T 5.61; Y 5.43; K 5.63; R 5.55; Q 5.34; C 5.5; I 4.87; F 5.5
P3: C 5.44; W 5.23; E 5.63; K 5.64; D 5.75; N 5.4; H 5.52; G 5.17; Y 5.32; M 5.76; I 4.9; Q 5.51; A 5.73; F 5.22; L 4.76
E24: A 4.99; D 4.51; S 4.65; M 4.37; P 4.65; K 4.68; C 4.6; R 4.27; H 4.62; Q 4.61; T 4.98; L 4.09; W 4.16
E19: T 5.17; G 4.86; Y 4.65; F 4.95; A 5.03; N 5.06; W 4.75; M 4.83; R 3.98; H 5.04; C 4.62; S 5.18; Q 5.33; K 4.42; D 5.25; V 4.09; L 4.04
